Assay results taken from the nanobody polyreactivity screen of Harvey et al. (2022).

Assay: yeast display, Sf9 membrane polyspecificity reagent, FACS + sequencing; frameworks hold sequencing errors
In short: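 In a synthetic yeast display library (Saccharomyces cerevisiae BJ5465), nanobody expression was induced with galactose for 36–48 hours. FACS gates were set low and high (top ~1%) using anti-HA fluorescence for expression and streptavidin fluorescence for binding of the Sf9 membrane reagent. Each polyreactivity label is drawn from the gate of origin.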

Row | Sequence | polyreactivity (PSR sort gate)
1 | QVQIVESGGGLVQAGGSLRLSCAASGSIFTYYAMGWYRQAPGKERELVAAINWSGGSTYYADSVKGRFTISRDNAKNTVYLQMNSLKPEDTAVYYCATDYYARRHSPRYDYWGQGTQLTVSS | low polyreactivity
2 | QVQLVESGGGLVQAGGSLRLSCAASGFIFRKNAMGWYRQAPGKERELVAANSQSGGSTYYADSVKGRFTISRDNAKNTVYLQMNSLKPEDTAVYYCAARYDLPNWVGGREYNYWGQGTQVTVSS | high polyreactivity
3 | QVQIVESGGGLVQAGGSLRLSSASSGRTLRQYAMGWYRPAHWKERDLVAAIRTNGGRTYYADSVMRRFTISRVNSKNTVYLQMNSLKPEDTAVYYCAVYAVVLGVLFDYWGQGTQVTVSS | high polyreactivity
4 | QVQLVESGGGLVQAGGSLRLSFAASGSIFPVYAMGWYKQAPGKERELVAAITTAGRTYYADSVKGRFTISRDNAKNTVYLQMNSLKPEDTAVYYCNARSRKVLTVDGGYWGQGTQVTVSS | high polyreactivity
5 | QVQLVESGAGLVQAGGSLRLSCAASGRIFRVYAMGWYRQAPGQERELVAAITSGGTTYADSVKGRLTISRDNAKKTVYLQMNILKPEDTAVYYCAARYYIHRGYDYDYWGQGTQVTVSS | high polyreactivity
6 | QVQLVESGGGLVQAGGSLRLSCAASGFIFRYNTMGWYRQAPGKERELVATINRSGGSTYYADSVKGRFTISRDNAKNTVYLQMNSLKPEDTAVYYCAARSGTRWRSGYYYWGQGTHVTVSS | high polyreactivity
7 | QVQLVESGGGLVQAGGSLRLSCAASGSTFDSYAIGWYRQAPGKERELVAGISIVGSTNYADSVKGRFTISPDNAKNTVYLQLNSLKPEDTAVYYCNAGYFRGSNAIKVRLTYDHWGQGTQVTVSS | low polyreactivity
8 | QVQLVESGGGLVQAGGSLRLSCAASGSTFRYYGMGWYRQAPGKERELVADITSGGTTDYADSVKGRFTISRDNAKNTVYLQMNSLKPEDTAVYYCAAGRWYKRQSTWGFGLDHDYWGQGTQVTVSS | low polyreactivity
9 | QVQLVESGGGLVQAGGSLRLSCAASGRTLPRYAMGGYRQAPGKERELVARIRYRGVSTYYADSVKGRFTISRDNAKTSVYLQMNSLKPEDTAVYYCAARASRAGLSGYWGQGTQVTVSS | high polyreactivity
10 | QVHLVESGGGLVQAGGSLRLSCAASGFTFLVYAMRWYRKAPGKEREFVAAMNWSGDRTYYADSVKGLFTISREYAKNTVYLQMNSVKTEDTAVYYCAAVDYVYPQAYGYWGQGTQVTVSS | low polyreactivity
11 | QVQLVESGGGLVQAGDSLRLSCAASGSIFVYYAMGWYRQAPGKERELVASISKTGGRTYYADSVKGRFTISRDNAKNTVFLQMNSLKPEDTAVYYCAARYTIRYKRYDYWGQGSQVTVSS | high polyreactivity
12 | QVQLVESGGGLVQAGGSLRLSCAASGLTFVKNAMGWYRQAPGKDRELVATISSGGSTNYADSVKGRFTISRDNAKNTVYLQMNSLKPEDTAVYYCNKDITGVLLWIWWDRYDYWGQGTQVTVSS | high polyreactivity
13 | QVQLVESGGGLVQAGGSLRLSCAASGFTLGVNAMGWYRQAPGKERELVAAISRGGSTDYADSVKGRFTISRDNAKNTVDLQMYSLKPEDTAVYYCAAETYAWYRGWEGYWGPGTQVTVSS | high polyreactivity
14 | QVQLVESGGGLVQAGGSLRLSCAASGSIFVKYAMGWYRQAPGKERELVAAISRSGGSTYYADSVKGRFTISRDNAKNTVYLQMNSLKPEDTAVYYCAASNYKGMNYWGQGTQVTVSS | high polyreactivity
15 | QVQLVESGGGLVQAGGSLRLSCAASGSTFRYYTMGWYRQAPGKERELVAAISWSGGITYYADSVKGRFTISRDNAKNTVYLQMNSLKPEDTAVYYCAADWWAWRAYYYWGQGTQVTVSS | high polyreactivity
16 | QVQLVESGGGLLQAGGSLRLSCAASGSIFQYNAMGWYRQAPGKERELVAAINGGGSTYYADSVKGRFTISRDNAKNTVYLQMNSLKPEDTAVYYCAADGGAYSYRGPGKFGIEDSWGQGTQVTVSS | low polyreactivity
17 | QVQLEESGGGLVQAGGRLRLSCAASGITFGSYAMGWYRQAPGKERELVAAITRSDITNYADSVKGRFTISRDNAKNSVYLQMNRLNREDTAVYYCNKTPDRHRRYFGYGYWGHGTQVTVSS | low polyreactivity
18 | QVQLVESGGGLVQAGGSLRLSCAASGSTFSNNAMGWYRQAPGKERELVATISQSGGSTYYADSVKGRFTISRDNAKNTVYLQMNSLKPEDTAVYYCNAESYLTGWWYDYWGQGTQVTVSS | high polyreactivity
19 | QVQHVESGGGLVQAGGSLRLSCAASGFIFYRYTMVWYRQAHGKERELVAAISQSGGNTYYADSVKGRFTISRDNAKNTVYLLMNSLKPEDTAVYYCNAVYYYYAGNYWGQGTQVTVSS | high polyreactivity
20 | QVQLVESGGGLVQAGGSLRLSCAASGLIFTGYVMGWYRQAPGKERELVAVIRSGDSTYYADSVKGRFTISRDNAKNTVYLQMNSLKPEDTAVYYCAKYDTGGRAHDYWGQGTQVTVSS | low polyreactivity
21 | QVQLVESGGGLVQAGGSLRLSCAASGRTFDYNAMGWYRQAPGKEREFVAAITKSGGSTNYADSVKGRFTISRDNEKNTVYLQMNSLKPEDTAVYYCNATYVVIHEYDYWGQGTQVTVSS | low polyreactivity
22 | QVQLVESGGGLVQAGGSLRLSCAASGSIFDPYAMGWYRQAPRKERELVAAIRWSGTSTYYADSVMGRFTISRDNAKNTVYLQMNSLKPEDTAVYYCAARGSKGFSSPFGYWGQGTQLTVSS | high polyreactivity

Row | Sequence | polyreactivity (PSR sort gate)
23 | QVQLVESGGGLVQAGGSLRLSCAASGRTFGRYAMVWSRQAPGKERELVAAITRGGGSTYYADSVKGRFTISRDNAKYTVYLQMNSLKPEDTAVYYCAARNFRSPYGYDYWGQGTQVTVSS | high polyreactivity
24 | QVQLVESGGGLVQAGGSLRLSCAASGSTFRQYPMGWYRQAPGKEREMVAAITWRGDNTYYADSVKGRFTISRDNAKKTVYLQMNSLKPEDTAVYYCAARWSYRLYWGYGYWGQGTQVTVSS | low polyreactivity
25 | QVQLVESGGGLVQAGGSLRLICAASGSIFPFNAMGWYRQAPGKERELVAAISSSGGSTSYADSVKGRFTISRDNAKNTVYLQMNSLKPEDTAVYYCNVRYRSAGSRYGYWGQGTQVTVSS | low polyreactivity
26 | QVQLVESGGGLVQAGGSLRLSCAASGITFGWYAMGWYRQAPGKERELVAAISWSGGTTYYADSVKGRFTISRDNAKNTVYLQMNSLKPEDTAVYYCAATWYYPTVYAGNYWGQGTQVTVSS | high polyreactivity
27 | QVQLVESGGGLVQAGGSLRLSCAASGSIFVSYAMGWYRQAPGKEREFVAAITRSGGSTYYADSVKGRFTISRDNAKNTVYLQMNSLKPEDTAVYYCAARSYLGAYRRYYWGQGTQVTVSS | high polyreactivity
28 | QVQLVESGGGLVQAGGSLRLSCAASGSIFFDYAMGWYRQAPGKERELVAAINSGGTTNYADSVKGRFTISRDNAKNTVYLQMIQPETGRYRGLLLQRLPGYLRWYRWYDYWGQGTQVSVSS | low polyreactivity
29 | QVQLVESGGGLVQAGGSLRLSCAASGLTFRKYAMGWYRQAPGKERELVAAITGSGGRTYYADSVKGRFTISRDNAKNTVYLQMNSLKPEDTAVYYCAADDYFHDDYCGQGTQVTVSS | high polyreactivity
30 | QVQHVESGGGLVQAGGSLRLSCAASGSIFPVYAMRWYRQAPGKEREFVASIRWRGGSTSYADSVKGRFTISRDNAKNTVYLQMNSLKPEDTAVYYCNAVYYSWAQSARFDYWGQGTQVTVSS | low polyreactivity
31 | QVQLVESGGVIVQAGGSLRLSCAASGFTFQAYAKGWYRQAPGKETELVAAITRSGGRTYYADSVKGRFTISRDNAKNTVYFQMKRLKPEDTAVYYCAKLSDSITLYGYWGQGTQVTVSS | high polyreactivity
32 | QVQLVESGAGLVQAGGSLRLSCAASGTTFWKYVMGWYRQAPGKERELVAAITSRGGSTYADSVKGRFTISRDNAKNSVYLQMNSLKPEDTAVYYCAATKFWYYGYDYWGQGTQVTVSS | low polyreactivity
33 | QVQLVESGGGLVQAGGSLRLSCAASGRIFDKYTMGWYRQAPGKERELVATITRGGVSMYYADSVKGRFTISRDNAKNTVYLQMNSLKPEDTAVYYCNAVWRLRVRYGYWGQGTQVTVSA | high polyreactivity
34 | QVQLVESGGGIVQAGGSLRLSCAASGFIFDAYAMGWYRQAPGKERELVAGISIGGRTIYADSVKGRFTISRDNAKNTVYLQMNSLKPEDTAVYYCAARNYRYYYGSYYRGPITNYEYWGQGTQVTVSS | low polyreactivity
35 | QVQLVESGGGLVQAGCSLRLSCAASGTFGLYAMGWYRQAPGKERELVAAIRARGGSTYYADSVKGRFTISRDNAKNTVYLQMNSLKPEDTAVYYCAAEFWDVSLARKQWYDYWGQGTQVSVSS | high polyreactivity
36 | QVQLVESGGGLVQAGGSLRLSCAASGTIFDAYAMGWYRQAPGKERELVAAISLDDGSTYYADSVKGRFTISRDNAKNTVYLQMNSLKPEDTAVYYCAADYYVRSQHLYATSGNYWGQGTQVTVSS | high polyreactivity
37 | QVQLVESGGGLVQAGGSLRLSCAASGFIFYSNAMGWYRQSPGKERELVAGISRGGSTYYADSVKGRFTISRDNAKNTVYLQMNRLKPEDTAVYYCAAKISLGDDYWGQGTQVTVSS | low polyreactivity
38 | QVQLVESGGGLVQAGGSLRLSCAASGSIFASNAMGWYRQAPGKERELVAAINSGGNTYEDSVKGRFTISRDNAKNTVYLQMNSLKPEDTAVYYCSVVWNWWSGLSPGYPDFDYWGQGTQVTVSS | low polyreactivity
39 | QVQLVESGGGLVQAGGSLRLSCAASGSTFSYNTMGWYRQAPGKERELVATIDFNGGSTYYADSVKGRFTISRDNAKNTVYLQMNSLKPEDTAVYYCNADRYPYWGYDYWGQGTQVTVSS | low polyreactivity
40 | QVQLVESGVGLVQAGGSLRLSCAASGSIFEDYVMGWYRQAPGKERELVADITSGGTTYYADSVKGRFTISRDNAKNTVYLQMNSLKPEDTAVYYCAAEVDWVPFLLDYWGQGTQVTVSS | low polyreactivity
41 | QVQLVESGGGLVQAGGSLRLSCAASGRIFSENAMGWYRQAPGKERELVAAISVSGGSTYYADSVKGRFTISRDNAKNTVYLQMNSLKPEDTAVYYCAAEYLAYYSGYDYWGQGTQVTVSS | high polyreactivity
42 | QVQLVESAGGLVQAGGSLRLSCAASGSTLYPYDMGWYRQAPGKERELVAAIDSGGSTNYADSVKGRFTISRDNAKNTVYLQMNSLKPEDTAVYYCAADASGENDYWGQGTQVTVSS | low polyreactivity
43 | QVQLVESGGGLVQAGGSLRLSCAASGGTFDTYAMGWYRQAPGKERELVAGIDWSGGSTYYADSVKGRFTISRDNAKNTVYLQMNSLKPEDTAVYYCAADYYYPSQMDYWGQGTQVTVSS | low polyreactivity
